Our source for the stoichiometry N values is paper doi:10.1101/2025.03.24.644915.

Test [1] concerns the target VP4 spike protein, uncleaved (NTR spike), simian rotavirus A strain SA11 clone C4111 (simian rotavirus A strain SA11 (clone C4111)). The test can be described thus: cryo-EM structure; purified NTR-TLP (made without trypsin, with leupeptin); single particle analysis with icosahedral symmetry, 3.40 Å; spike by localized reconstruction, 3D classification, optical flow (EnRICH) and LocSpiral.

For test [2], the target named is VP6 protein, rotavirus SA11 clone C4111 (simian rotavirus A strain SA11 (clone C4111)). The description is as above.
For test [3] the target is unchanged. The test can be described thus: cryo-EM structure; purified TR-TLP (made in the presence of trypsin); single particle analysis with icosahedral symmetry, 3.48 Å; spike by localized reconstruction, 3D classification, optical flow (EnRICH) and LocSpiral.
The target of test [4] is VP7 glycoprotein, rotavirus SA11 clone C4111 (simian rotavirus A strain SA11 (clone C4111)). The test is described as follows: cryo-EM structure; purified NTR-TLP (made without trypsin, with leupeptin); single particle analysis with icosahedral symmetry, 3.40 Å; spike by localized reconstruction, 3D classification, optical flow (EnRICH) and LocSpiral.
For test [5] the target is unchanged. The test can be described thus: cryo-EM structure; purified TR-TLP (made in the presence of trypsin); single particle analysis with icosahedral symmetry, 3.48 Å; spike by localized reconstruction, 3D classification, optical flow (EnRICH) and LocSpiral.

A word on the stoichiometry N: it is the number of molecules, sites or subunits per partner or assembly. In the case of “VP4 spike protein, uncleaved (NTR spike), simian rotavirus A strain SA11 clone C4111 (natural protein)”, the stoichiometry N in test [1] worked out at 3.

In the case of “VP6 protein, rotavirus SA11 clone C4111 (natural protein)”, the stoichiometry N in test [2] and in test [3] was 3 throughout. With “VP7 glycoprotein, rotavirus SA11 clone C4111 (natural protein)”, the stoichiometry N in test [4] and in test [5] was 3 each time.
